B1: CPEB3 Ribozyme (parent)
chain: UAACAGGGGGCCACAGCAGAAGCGUUCACGUCGCAGCCCCUGUCAGAUUCUGGUGAAUCUGCGAAUUCUGCUGUAUAUCUC

This data set covers variants of B1. Nature of the data set: self-cleavage, relative activity (ratio to wild type); higher = more cleavage; in vitro, sequencing. In outline:
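Relative activity was defined as the cleaved/total read fraction for a variant divided by the same fraction for the unmutated ribozyme. CPEB3 self-cleaving ribozyme libraries were made by rounds of error-prone PCR, barcoded, and transcribed in vitro with T7 RNA polymerase for 5 hours at 37°C, and cleavage ran through transcription plus a 15 min DNase I step before EDTA. Illumina sequencing of template-switched reverse transcripts gave the reads, and DNA sequencing mapped the barcodes. Averages come from three batches, using variants with at least 5 reads.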
As for A18C A45G, the self-cleavage was determined as 0.29. As to A18C A45U, the self-cleavage came to 0.1. Turning to A18C A45C, the self-cleavage stood at 0.21. Regarding C17U U72A, the self-cleavage came out at 0.21. For C17U U72G the value was 0.4.

For the variant C17U U72C, the self-cleavage stood at 0.74. For A18G G24A the value was 0.15. For A18G G24C, the self-cleavage was determined as 0.28. To A18C A65G belongs 0.26; to A18C A65U, 0.16. For A18G U72A the value was 0.35; for A18G U72C, 0.68; for A18G U72G, 0.29.

Regarding A18U C34U, the self-cleavage worked out at 0.25. To A18U C34A belongs 0.23; to A18G A75U, 0.82; to A18G A75C, 0.91. To A18G A75G belongs 0.57.

For A18G C23A, the self-cleavage was found to be 0.26. As for A18G C23U, the self-cleavage turned out to be 0.12.

Regarding A18G C23G, the self-cleavage is 0.61. To A18C U54A belongs 0.37.

A18C U54C: the self-cleavage came out at 0.32.

Take A18C A35U: the self-cleavage was determined as 0.16. As to A18C A35G, the self-cleavage turned out to be 1.03. A18C C37A: the self-cleavage came to 0.33. With C17U U41A, the self-cleavage was determined as 0.24. To C17U U41C belongs 0.32; to C17U U41G, 0.37; to A18G U48C, 0.31.

For A18G U48A, the self-cleavage turned out to be 0.16.

As for A18U C23G, the self-cleavage stood at 0.22. For A18U C23A the value was 0.1; for A18U C23U, 0.23. For A18C C29U the value was 0.31; for A18G C39A, 0.47; for A18G C39U, 0.52.

For A18G C39G, the self-cleavage was found to be 0.21. For C17U U76C the value was 0.83; for A18U C79U, 0.26; for A18U C79A, 0.75. For A18U C62A the value was 0.28; for A18U C62G, 0.27. To A18U C62U belongs 0.33; to A18U G53A, 0.56; to A18C G33A, 0.42. In the case of A18C G33U, the self-cleavage was found to be 0.13.

A18G G55U: the self-cleavage is 0.7.

As to A18G G55A, the self-cleavage came out at 0.47. For A18U A75G the value was 0.38; for A18U A75U, 0.5; for A18G U54G, 0.36. Consider A18G U54A, for which the self-cleavage is 0.8.

Consider A18G U54C, for which the self-cleavage stood at 0.57. Consider A18C A28G, for which the self-cleavage is 0.29. Take A18C A28U: the self-cleavage was found to be 0.37. To A18C A28C belongs 0.43. For A18C U26C the value was 0.44. For A18G G52C the value was 0.94; for A18G G52U, 0.83; for A18G G52A, 0.82. In the case of A18U A64G, the self-cleavage was determined as 0.31. As for A18U A64U, the self-cleavage is 0.28. To C17U U25C belongs 0.25; to A18C U51C, 0.36.

As for A18C U51A, the self-cleavage turned out to be 0.42.

As for C17U U69A, the self-cleavage was determined as 0.4. To C17U U69C belongs 0.21.

C17U U69G: the self-cleavage was 0.25.

As for A18U G33A, the self-cleavage was 0.3. Take A18G A77G: the self-cleavage came to 0.78. In the case of A18G A77U, the self-cleavage was 0.78. To A18G A77C belongs 0.39. For A18U A28C the value was 0.15.

Take A18U A28G: the self-cleavage was determined as 0.26. To A18U A28U belongs 0.29. For A18G A57G the value was 0.55; for A18G A57U, 0.36; for A18G A57C, 0.49. For the variant A18U C29A, the self-cleavage came out at 0.19. To A18U C29U belongs 0.17; to A18G U58C, 0.28.

As for A18G U58G, the self-cleavage is 0.28.

Consider A18G U58A, for which the self-cleavage was found to be 0.21. For A18U C68A the value was 0.2; for A18C U49G, 0.17.

For A18C U49C, the self-cleavage was 0.29.

For A18G U31A, the self-cleavage worked out at 0.41. For A18G U31C the value was 0.3.

A18G U80A: the self-cleavage amounted to 0.9. For A18G U80C the value was 0.86; for A18U C32G, 0.17. To A18U C32U belongs 0.08.

Regarding A18U C32A, the self-cleavage was 0.17. To A18C U66C belongs 0.21; to A18C C34U, 0.22; to A18C U78C, 0.4. To A18U A20U belongs 0.25. For A18U A20G the value was 0.34; for A18G G63U, 1.02. Regarding A18G G63A, the self-cleavage is 0.51. To A18G G63C belongs 0.55; to A18G C44G, 0.16. To A18G C44U belongs 0.2; to A18G C44A, 0.28. For A18G A45U the value was 0.35; for A18G A45C, 0.3.

As to A18G A45G, the self-cleavage worked out at 0.46.

On to C17U U48A, for which the self-cleavage came to 0.24. With C17U U48C, the self-cleavage stood at 0.31. For A18G G61A the value was 0.3. To A18G A47G belongs 0.66.

In the case of A18G A47U, the self-cleavage came to 0.44.

Consider A18G A47C, for which the self-cleavage turned out to be 0.12.

With A18C A77G, the self-cleavage was determined as 0.26. Take A18C C62U: the self-cleavage amounted to 0.39. As to A18G C40A, the self-cleavage worked out at 0.14.

With A18G C40U, the self-cleavage was determined as 0.44. For A18C G42A the value was 0.17.

For the variant A18G C27G, the self-cleavage came out at 0.41.

In the case of A18G C27U, the self-cleavage came out at 0.42. Regarding A18C A56U, the self-cleavage amounted to 0.14.

A18C A56G: the self-cleavage amounted to 0.17. For A18C C32U the value was 0.43; for A18C A21G, 0.21; for C17U U80C, 0.85.

A18U C81G: the self-cleavage was determined as 0.27. To A18U C81U belongs 0.51; to A18U C81A, 0.69; to A18C A75G, 0.41. To C17U U74A belongs 1.02; to C17U U74C, 0.97. For C17U U43C the value was 0.41. Regarding C17U U43A, the self-cleavage is 0.98. For A18U G22U the value was 0.24. For A18U A21C the value was 0.2; for A18U A21G, 0.25. For A18U A21U the value was 0.28. For the variant C17U U78C, the self-cleavage worked out at 0.63.

In the case of A18G U60C, the self-cleavage came out at 0.28. Regarding A18G U60A, the self-cleavage was found to be 0.38. Regarding A18G U60G, the self-cleavage worked out at 0.14. For A18C C50U the value was 0.51; for A18C C50A, 0.12.

In the case of C17U U51C, the self-cleavage worked out at 0.56. To C17U U51G belongs 0.74; to A18G A65U, 0.38. For A18G A65G the value was 0.34; for A18G A28C, 0.38; for A18G A28G, 0.33. As to A18G A28U, the self-cleavage came to 0.5. A18G C59A: the self-cleavage amounted to 0.23. As to A18G C59U, the self-cleavage turned out to be 0.43. As for A18G C59G, the self-cleavage is 0.25. For the variant A18U C59U, the self-cleavage was determined as 0.23. To A18U C59G belongs 0.15; to A18U C59A, 0.17; to C17U U67C, 0.22. As to A18C A47G, the self-cleavage worked out at 0.26. Take C17U U58G: the self-cleavage turned out to be 0.15.

On to C17U U58C, for which the self-cleavage came to 0.17. Regarding A18G U66A, the self-cleavage was 0.31.

Regarding A18G U66C, the self-cleavage was found to be 0.29. For the variant A18C U67C, the self-cleavage came out at 0.18. Consider A18G U67A, for which the self-cleavage turned out to be 0.31.

In the case of A18G U67C, the self-cleavage was found to be 0.26.

With A18G U67G, the self-cleavage came to 0.28.

Values taken from the RNAGym collection of RNA variant scans (doi:10.1093/nar/gkz1192).
